Assay: label from the status in PepcDB records

| Sequence | protein production |
| --- | --- |
| MEKIAILVDVQNVYYTCREQYGRHFDYNQFWSQVTQNRTVVKANAYAIASKDPQQRQFHHILRGIGFEVMLKPFIQRSDGSAKGDWDVGIALDGYELAQEVDTVVLVSGDGDFEPLVTRIAQRFQVKVEVYGVPKLTAQHLIDVASQFHPIEHRLL | failed |
| MTENTKISLIVQEADYNDVGRGYAKINNDVMAKLGVESGDFIKITGKRMGAAKVMRSSVSGSGGIAIDGDIRRSAGAGIGDTVTVEKVVPKTAAKITLQPISQSIRLDSRALEQTIQSKFAGRPITKGQIMTFGFQTKSEDPFFSGWGGFSNYNTEYVDFAVSDVSPGDVAIIGSETTVNYKDSVYKGEDAPKGKSAGNIHYEDIGGLGRELSLVREMIEYPLRHPEVFEKLGIEPPKGVLLYGPPGTGKTLIARAVANEAGAYFDTISGPEIISKYYGDSEEKLREIFEKAEENAPSIIFIDEIDSIAPKREESKGEVERRVVAQLLSLMDGLKSRGKVIVIAATNLPDSIDPALRRGGRFDREIEIGVPDKDGRREILQIHARNVPLSENVKLEKYANTTHGFVGADLALMVKEAAMHALRRAFPGMNPDEEISAEKLENLKVTAEDFESALKMVQPSAMREVLVEVPDIHWADVGGLDSVKEELQQAVEWPLKYREVYKQFATKSPKGFLMFGPPGTGKTLLAKAVANESECNFISVKGPELMSKWVGESEKGIREIFRKARLASPSIIFFDEIDSIVPRRGSYEGSSHVTESVVSQFLTELDGLEELKNVVVIGATNRPDMIDPALLRPGRLEQHIFVPPPDREGRKQILDVYIKDISSMLAEDVNLDELVDKTEGFVGADIEALVREAKMVAIREFVKVMAGHDAAEITLAVSSVKVFGRHFDAALKRVRPSLDKEGRRSAERGSWQYRFNEEERKTLEKGISVVETAEYKDAGSTPELRELDELLMAHQKDFSRIKEIIKTADA | failed |
| MSEENKIGTYQFVAEPFHVDFNGRLTMGVLGNHLLNCAGFHASDRGFGIATLNEDNYTWVLSRLAIELDEMPYQYEKFSVQTWVENVYRLFTDRNFAVIDKDGKKIGYARSVWAMINLNTRKPADLLALHGGSIVDYICDEPCPIEKPSRIKVTSNQPVATLTAKYSDIDINGHVNSIRYIEHILDLFPIELYQTKRIRRFEMAYVAESYFGDELSFFCDEVSENEFHVEVKKNGSEVVCRSKVIFE | not failed |
| MIRKKQTEKPSEWDPPAPSTVYIKIKNIPYETFKTKLNQGLVTTDLDQIRYRLEKHIYCCGVCSKHVNGYCVITNRKAEPGWICKSFVPKEEFIYLDSRPDRKDPAEFRYLSETGLEKDYIESAGARERRHGNEGTKALYDEGVTLYRQGRLKLALEAFDSVLEANPLDFAALFHKGNALLKLKRYEEALEVFERASEINQENAGLWTNLGFIFTKLERFRDSLEAFEKSISLNPVQKNAWEGRDAVIARVRLCEERLRESEEALKKNPEDPDTLFKIGKIHLRLGEQEKAIQAFKKALEIKPENAEAWQFRGKVLFKAGSEKEALHAFEKATRLKPDYAEAWFEKGNAFLKLENLKGAENAFKIAARLWDSKGIKSKAESARDKVKRLHSSN | failed |
| AQQQELPVPKPHQLKWHEAEMGAVFHYDLHVFDGIRYGQGNNRINPIEDYNIFNPTELNTDQWVQAAKAAGCKFAVLTATHETGFGLWQSDVNPYCLKAVKWRDGKGDIVRDFVNSCRKYGLQPGIYIGIRWNSLLGIHNFKAEGEGAFARNRQAWYKRLCEKMVTELCTRYGDLYMIWFDGGADDPRADGPDVEPIVNKYQPNCLFYHNIDRADFRWGGSETGTVEYPCWSTFPVPCSHHKRIESSIDQLELLKHGDKNGRYWVPAMADTPLRGANGRHEWFWEPDDENNIYPLNTLMDKYEKSVGRNATLILGLTPDPTGLIPAGDAQRLKEMGDEINRRFSSPIARISGQKKSLTLKLGKEQSVNYCIIQENIKNGERIRQYQIEAKVNGKWQTVCKGESVGHKRIEKFEPVEATALRLTVSESIALPDIINFSAYSVK | not failed |
| MNPLHLAAAFASGCLLTLMVHFNGQLAHYGNALFSSWTAHGTGTVAALIYLAIMRPKKDAAAPAKPNAPLWAYCGGVVGAAIVILTSTAVNSPLALSGTIALGLGGQVIFSLLADLFGLFGLPKRRPDVQDMVAVCLILCGSALIILVGRAA | failed |
| MATEISTRGRQRAIGHEEYSLYSSLSEEELLQMAIEQSLADKTRGPTPAEASASSQTNHQPGHFHPWTRSPSSPENPPARAPLGLFQGVMQKYSSNLFKTSQMAAMDPVLKAIKEGDEEALKIMIQDGKNLAEPNKEGWLPLHEAAYYGQLGCLKVLQQAYPGTIDQRTLQEETALYLATCREHLDCLLSLLQAGAEPDISNKSRETPLYKACERKNAEAVRILVRYNADANHRCNRGWTALHESVSRNDLEVMEILVSGGAKVEAKNVYSITPLFVAAQSGQLEALRFLAKHGADINTQASDSASALYEASKNEHEDVVEFLLSQGADANKANKDGLLPLHVASKKGNYRIVQMLLPVTSRTRVRRSGISPLHLAAERNHDAVLEALLAARFDVNAPLAPERARLYEDRRSSALYFAVVNNNVYATELLLLAGADPNRDVISPLLVAIRHGCLRTMQLLLDHGANIDAYIATHPTAFPATIMFAMKCLSLLKFLMDLGCDGEPCFSCLYGNGPHPPAPRPGRFHDAPVDDKAPSVVQFCEFLSAPEVSRWAGPIIDVLLDYVGNVQLCSRLKEHIDSFEDWAVIKEKAEPPRPLAHLCRLRVRKAIGKYRIKLLDTLPLPGRLIRYLKYENTQ | failed |
| MRPDLSRVPGVLGEIARKRASEVAPYPLPEPPSVPSFKEALLRPGLSVIAEVKRQSPSEGLIREVDPVEAALAYARGGARAVSVLTEPHRFGGSLLDLKRVREAVDLPLLRKDFVVDPFMLEEARAFGASAALLIVALLGELTGAYLEEARRLGLEALVEVHTERELEIALEAGAEVLGINNRDLATLHINLETAPRLGRLARKRGFGGVLVAESGYSRKEELKALEGLFDAVLIGTSLMRAPDLEAALRELVG | not failed |
| MFTDLDLALFFIIIFIVLFIGYIAYFWRKPDDIHKHGEWSLGGRRFGTVVVWFLLGGDLYTAYTLIAVPGAAATPGIGGGAFAMFAITYGIMIYPIVYGTMPRLYNVSKKRGYITAADFVKDRFSSRFLAMLIALTGVLAELPYIALQITGIKYVLASLSLPISISLIIAFLLVAGFTFVSGLRGPALTAIIKDAIIWAAVLVIIVYIPLKLHGFGNIFSKAATISPNLLDISPTIDIGYVSLALGSALALFLYPHAVTGTLGSKDVKTIKRNAALLPLYNVLLMFVAIIGIMSVVYFNAYPKVSSEALPLLVLHVFPSTFTAFAFAAIVVGSIVPASIMALASANLLTRNLYLEYINPNATEKAQTNLSRVLVVVVIVAALAFSLVPAASGEIVYLQTIGGAIIMQTLPSVYLALFTRKLNKYPVGLGWLAGLATTMILLVDLHFKTSLYKGFFFMYVGIIALLINLAVVGLGMLIMAAMHRIKNEGIIEDHEFLDE | failed |
| MEMDTMFLAILIGAGLIGISVVTSLISFRVGAPLLLVFLGVGLLAGQDGIGGIVFNDSGTAYFIGSLALAVILFDSGFSTRLQTFRLAAAPSIVLATLGVALTTALVAIPSHSLLGLSWEESALMGAVVGSTDAAAVFFLLRVGGILIRDRVRATLEVESSTNDPMAIFLTITLVELASAGGFSGEALSWGLGLAFVRQMGLGLLCGWIGGHLLVVGINRLRLEPALYPILGLALALFLFAAVSMVDGSGFLAIYVAGMVMGNRKMRGGPALRRFQEALTWLAQMTMFLTLGLFASPSTFIDVALPSVLIGLFLVFVARPVAVWLCLLPFGYDRNETAFVAWVGLRGAVSILLAILPIAAGLEHAQEMFNAAFIVVVTSLLLQGWTIRPMARWLGLVVPPRLGPVDKVELQLPYGGDHELLVYRIAKGSPVAEGERIPRWARPSLVVRDGRSMKVLDSGRPQPGDHVYIFSAPRHGALLDRLFARPTALSPADEAYFGDFSLDASRTMGELATLYGIKVPEGAQDTAVGEWLTQRLGGAPARGDRVVLPPIEIIVREMDNSTDVIRTIGLSLDPGEGRPRRVPMFHNARDIIGSVRDWRAARRRFAAKNS | failed |
| MDAKQLSKRLATVGAFVQPGARVADIGSDHAYLPANLALNHQISYGVAGEVVRGPFENARHEIQKLGLTDRLVARLADGLAAIEPADRIDTVTIAGMGGPLIRHILEQGPTQLAGVQRLVLEPNVGEATVREWLAANQFQIVAERILAEDGHTYEILCADRVDHQVTYTTAEQMFGPFLLAEKSPVFIAKWQRELQRVNAAVAQMQRAKVIPEEQLALAHAKIKLIEGVLTDASK | failed |
| MILLTYLIGILIGLSLTAPPGPVNSVISTESMKSKAHGVSVGAGAMTADLVFFVIVFRFGAFIPVLALHALYLAGAVLLLYISYSVLKSKISRRTRKGNYLVGLTMGITNPFQILWWMTVGLFFIRYFHIASIAGLFTGIIIWILSFPFVMNKYARRFERYVKIFSFAVLFSFAIYLLYSGVVYFLR | failed |
| MQYPPRLGFGTWQAPPEAVQTAVETALMTGYRHIDCAYVYQNEEAIGRAFGKIFKDASSGIKREDVWITSKLWNYNHRPELVREQCKKTMSDLQVDYLDLFLVHWPLAFVRNDVGDLFPKDAEGRAMLEKVPLADTWRAMEQLVEEGLVKHIGVSNYTVPLLADLLNYAKIKPLVNQIEIHPWHPNDATVKFCLDNGIGVTAYSPMGGSYADPRDPSGTQKNVILECKTLKAIADAKGTSPHCVALAWHVKKWNTSMYSVIPKSQTPARIEANFKCTEVQLSDDDMDAINNIHLNKRIRFCDPAIFWKVPLFD | not failed |
| MTVWRSWRLLGVSGDSKPTDGPVSRFLNRRIASAIASAIIALNLPLTPNMLSLISFLTAAAAALFIAGGQLLVGGLLVQLSSVLDGVDGIVARRLRAASKAGGFLDTMLDRYADTVIYLALAYAAVATHGLETWAVLTAVLAVSGDIMVSYLHTRGERDAGVHPSLVGPLDSLASRDVRLLIVAVITAAGRPLEAMAAVALLSHAYVAVKSIYLFSLLKSKGV | failed |
| MFMNRLFGKPKQETSTLQTLDKLNETLEMLEKKENVLLKKATGEVEKAKEFSRAKNKRAAIQCLKRKRLYEQQVEQLGNFQLRIHDQMIMLEGAKATTETVDALRTGASAMKAMQKATNIDDVDKTMDEINEQTENMKQIQEALSAPFGANDFDEDELEAELDELEGAELEEQLLQPVPIHVPQGNKPARAPAQKQPTAEEDELAALQAEMAL | failed |
| MTTPVDAPKWPRQIPYIIASEACERFSFYGMRNILTPFLMTALLLSIPEELRGAVAKDVFHSFVIGVYFFPLLGGWIADRFFGKYNTILWLSLIYCVGHAFLAIFEHSVQGFYTGLFLIALGSGGIKPLVSSFMGDQFDQSNKSLAQKAFDMFYFTINFGSFFASLSMPLLLKNFGAAVAFGIPGVLMFVATVFFWLGRKRYIHMPPEPKDPHGFLPVIRSALLTKVEGKGNIGLVLALIGGVSAAYALVNIPTLGIVAGLCCAMVLVMGFVGAGASLQLERARKSHPDAAVDGVRSVLRILVLFALVTPFWSLFDQKASTWILQANDMVKPQWFEPAMMQALNPLLVMLLIPFNNFVLYPAIERMGVKLTALRKMGAGIAITGLSWIVVGTIQLMMDGGSALSIFWQILPYALLTFGEVLVSATGLEFAYSQAPKAMKGTIMSFWTLSVTVGNLWVLLANVSVKSPTVTEQIVQTGMSVTAFQMFFFAGFAILAAIVFALYARSYQMQDHYRQAT | failed |
| GSGLDVKNLVDAIVTAEITPSQVRHDKQLNSVNTELSALGQLKSYLTNLQTSLAKLSSLSQFYTMKSTISDPNYFSATLGTGATKNTYQIEIQKLAQQHS | failed |
| MKRYQGRIIATVLAMTFIMFWNFLFYGVLGNKINWTVDLLFTLVTLISVWWLTLYIDESNQLVYKLKESEKKYKELSSETNRIMDNLQEIVFQTDRIGYITFLNQAWTTLTGYSVEESLGTMYNDYFDHEERISNHLIAQLKNKEPEGRIEVLYHRKDGSKFWGEVHYKLYYKNGQFTGSLGTLTDVTERKKAEMELFKSNQRLAMQSQKLAMAGQLAAGIAHEVRNPLTSVNGFLQLMKAEYPDRKDYFDIIFSEIKRIDSVLGELLVLAKPHQVQFKKIKINSVLQQVATLLETNAVLSHIKIEKAFQHGEEWEINGDENQIKQVFINLIKNGIEAMPDGGKITISSKAEGDCVKISIKDEGGGISQADLAKLGEPFFSTKEEGTGLGLTICLNIIGAHNGEMKIDSKLGEGSTFHILLPVDKGAASEENDIQQGCCSRATIK | failed |

Source: a protein production outcome set (Wang et al. 2014)
